Reference: US20170319711A1 (Pfizer, published 2017)

T1: cynomolgus 5T4 ectodomain fused to the human IgG1-Fc domain (cynomolgus monkey; human, UniProt Q4R8Y9 35-355)
T1 construct: range 1-355; also called cyno5T4; not shown: Fc constant region from human IgG1
T1 sequence (looked up): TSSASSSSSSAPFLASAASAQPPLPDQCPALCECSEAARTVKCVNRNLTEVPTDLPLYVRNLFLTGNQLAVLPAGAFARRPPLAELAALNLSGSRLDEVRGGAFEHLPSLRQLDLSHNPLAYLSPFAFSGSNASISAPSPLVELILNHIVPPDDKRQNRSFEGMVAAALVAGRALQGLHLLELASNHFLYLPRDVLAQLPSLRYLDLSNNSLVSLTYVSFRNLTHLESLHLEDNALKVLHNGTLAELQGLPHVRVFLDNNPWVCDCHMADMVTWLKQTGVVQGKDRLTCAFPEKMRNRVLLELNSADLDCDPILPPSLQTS

T2: human 5T4 ectodomain fused to the human IgG1-Fc domain (human, UniProt Q13641 32-355)
T2 construct: also called hu5T4; 5T4-Fc; not shown: Fc constant region from human IgG1
T2 sequence: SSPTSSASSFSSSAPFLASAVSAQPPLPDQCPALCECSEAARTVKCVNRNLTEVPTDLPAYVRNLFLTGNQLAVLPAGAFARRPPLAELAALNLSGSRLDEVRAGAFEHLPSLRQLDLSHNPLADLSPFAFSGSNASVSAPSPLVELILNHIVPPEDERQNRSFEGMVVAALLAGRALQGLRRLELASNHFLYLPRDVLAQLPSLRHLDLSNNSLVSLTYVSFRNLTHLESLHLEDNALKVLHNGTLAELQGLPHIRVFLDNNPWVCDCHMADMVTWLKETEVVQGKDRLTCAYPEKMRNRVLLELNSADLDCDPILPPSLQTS

T3: Human 5T4 antigen on cells (human, UniProt Q13641 32-420)
T3 construct: also called 5T4 oncofetal antigen
T3 sequence: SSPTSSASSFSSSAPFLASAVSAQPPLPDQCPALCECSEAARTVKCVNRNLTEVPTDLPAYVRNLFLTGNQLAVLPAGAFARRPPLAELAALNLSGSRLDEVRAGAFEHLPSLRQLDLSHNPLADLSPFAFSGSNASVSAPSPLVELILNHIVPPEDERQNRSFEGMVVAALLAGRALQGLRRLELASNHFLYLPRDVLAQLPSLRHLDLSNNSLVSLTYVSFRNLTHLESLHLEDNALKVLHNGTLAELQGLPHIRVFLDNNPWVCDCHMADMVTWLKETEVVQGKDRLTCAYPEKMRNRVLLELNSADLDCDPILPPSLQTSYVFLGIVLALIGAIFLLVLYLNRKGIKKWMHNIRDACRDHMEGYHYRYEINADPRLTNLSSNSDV

T4: mouse 5T4 (mouse, UniProt Q9Z0L0 32-361, limits assumed)
T4 sequence (looked up): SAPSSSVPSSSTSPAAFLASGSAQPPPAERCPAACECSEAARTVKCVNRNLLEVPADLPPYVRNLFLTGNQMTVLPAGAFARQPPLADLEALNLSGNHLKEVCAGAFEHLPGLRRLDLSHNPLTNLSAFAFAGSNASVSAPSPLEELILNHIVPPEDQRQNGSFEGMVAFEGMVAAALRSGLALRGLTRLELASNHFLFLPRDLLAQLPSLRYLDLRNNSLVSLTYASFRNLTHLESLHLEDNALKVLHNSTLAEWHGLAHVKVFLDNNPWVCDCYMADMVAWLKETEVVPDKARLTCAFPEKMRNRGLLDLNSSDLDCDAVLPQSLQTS


What was measured:
[1] = target: T1, cynomolgus 5T4 ectodomain fused to the …; experiment: SPR (BIAcore), immobilized 5T4-Fc, pH 6.0
Procedure: (§1) Surface plasmon resonance (SPR) analysis is performed utilizing the BIAcore® to determine the affinity constants for A1-IgG1 and A1-IgG4 binding to either human or cynomolgus 5T4 at pH 6.0 and pH 7.4. BIAcore® technology utilizes changes in the refractive index at the surface layer upon binding of the huA1 antibody variants to the human 5T4 protein immobilized on the surface layer. Binding is detected by SPR of laser light refracting from the surface. Analysis of the signal kinetics on-rate and off-rate allows the discrimination between non-specific and specific interactions. The 5T4 proteins used for this analysis consisted of the human or cynomolgus 5T4 ectodomain fused to the human IgG1-Fc domain and low densities (45.1 and 45.4 RU for human and cynomolgus respectively) are immobilized onto a CM5 chip to accurately measure affinity constants.
(§2) The measurement of specific binding to the 5T4 ectodomain is attained by subtracting binding to a reference surface that had only human IgG1-Fc protein immobilized onto the CM5 chip at the same density to that on the 5T4-Fc surfaces. Next, various concentrations of A1, A1-IgG4, or A3 antibodies in either HBS-EP pH 7.4 or MES-EP pH 6.0 buffer are injected over the surface. The surface is regenerated two times with Glycine pH 1.7+0.05% Surfactant P20 (GE Healthcare, BR-1000-54) between injection cycles.

[2] = target: T2, human 5T4 ectodomain fused to the human …; experiment: SPR (BIAcore), immobilized 5T4-Fc, pH 6.0
Procedure: as §1, §2

[3] = target: T3, Human 5T4 antigen on cells; experiment: flow cytometry, 10 ug/mL, PC3mm2 cells
Procedure: (§3) Cells expressing the 5T4 antigen, and the negative control Raji cells, are plated at a density of 500,000 cells/well on non-tissue culture treated 96 well plates and kept on ice. Dilutions of the A1 and A1-IgG4 antibodies or A1-mcMMAF ADC are made in 3% bovine serum albumin BSA in Dulbecco's phosphate buffered saline (DPBS) and added to the plate at a final concentration of 10 μg/mL. The plates are then incubated on ice for 1 hour followed by 2 washes. The secondary antibody, PE (phycoerythrin) conjugated Goat Anti-Human IgG Fc is added to the wells. After 30 minutes of incubation at 4 C, the mean fluorescence intensity is then measured using a flow cytometer.

[4] = target: T3, Human 5T4 antigen on cells; experiment: flow cytometry, 10 ug/mL, A431 cells
Procedure: as §3

[5] = target: T1, cynomolgus 5T4 ectodomain fused to the …; experiment: SPR (BIAcore), immobilized 5T4-Fc, pH 7.4
Procedure: as §1, §2

[6] = target: T2, human 5T4 ectodomain fused to the human …; experiment: SPR (BIAcore), immobilized 5T4-Fc, pH 7.4
Procedure: as §1, §2

[7] = target: T3, Human 5T4 antigen on cells; experiment: flow cytometry, 10 ug/mL, MDAMD361-DYT2 cells
Procedure: as §3

[8] = target: T1, cynomolgus 5T4 ectodomain fused to the …; experiment: SPR (BIAcore), immobilized 5T4-Fc, pH 7.4; remark: listed apart in the source
Procedure: as §1, §2

[9] = target: T2, human 5T4 ectodomain fused to the human …; experiment: SPR (BIAcore), immobilized 5T4-Fc, pH 7.4; remark: listed apart in the source
Procedure: as §1, §2

[10] = target: T1, cynomolgus 5T4 ectodomain fused to the …; experiment: SPR (BIAcore), low-density 5T4-Fc surface, pH 7.4
Procedure: as §1, §2

[11] = target: T2, human 5T4 ectodomain fused to the human …; experiment: SPR (BIAcore), low-density 5T4-Fc surface, pH 7.4
Procedure: as §1, §2

[12] = target: T1, cynomolgus 5T4 ectodomain fused to the …; experiment: SPR (BIAcore), immobilized 5T4-Fc, pH 6.0; remark: listed apart in the source
Procedure: as §1, §2

[13] = target: T2, human 5T4 ectodomain fused to the human …; experiment: SPR (BIAcore), immobilized 5T4-Fc, pH 6.0; remark: listed apart in the source
Procedure: as §1, §2

[14] = target: T3, Human 5T4 antigen on cells; experiment: flow cytometry, 10 ug/mL, MDAMB468 cells
Procedure: as §3

mouse 5T4 = target: T4, mouse 5T4; experiment: ELISA (Example 7)
[15] = target: T1, cynomolgus 5T4 ectodomain fused to the …; experiment: SPR (BIAcore), low-density 5T4-Fc surface, pH 6.0
Procedure: as §1, §2

[16] = target: T2, human 5T4 ectodomain fused to the human …; experiment: SPR (BIAcore), low-density 5T4-Fc surface, pH 6.0
Procedure: as §1, §2

[17] = target: T1, cynomolgus 5T4 ectodomain fused to the …; experiment: SPR (BIAcore), immobilized 5T4-Fc, pH not printed in this row (7.4 by the order of the table); row shifted one column to the left; pH 7.4
Procedure: as §1, §2

[18] = target: T1, cynomolgus 5T4 ectodomain fused to the …; experiment: SPR (BIAcore), immobilized 5T4-Fc, pH not printed in this row (7.4 by the order of the table); row shifted one column to the left; pH 7.4 (pH cell missing; inferred from the order of the table)
Procedure: as §1, §2

Row | Binder | Kd [1] [nM] | koff [1] [s⁻¹] | kon [1] [M⁻¹ s⁻¹] | Kd [2] [nM] | koff [2] [s⁻¹] | kon [2] [M⁻¹ s⁻¹] | Mean Fluorescent Intensity [3] | Mean Fluorescent Intensity [4] | Kd [6] [nM] | koff [6] [s⁻¹] | kon [6] [M⁻¹ s⁻¹] | Mean Fluorescent Intensity [7] | Kd [8] [nM] | koff [8] [s⁻¹] | kon [8] [M⁻¹ s⁻¹] | Kd [9] [nM] | koff [9] [s⁻¹] | kon [9] [M⁻¹ s⁻¹] | Kd [12] [nM] | koff [12] [s⁻¹] | other results
1 | A1 (a humanized anti-5T4 IgG1 antibody) (antibody, also called A1-IgG1; A1 antibody) heavy: not shown light: DIQMTQSPSSLSASVGDRVTITCKASQSVSNDVAWYQQKPGKAPKLLIYFATNRYTGVPSRFSGSGYGTDFTLTISSLQPEDFATYYCQQDYSSPWTFGQGTKVEIKRTVAAPSVFIFPPSDEQLKSGTASVVCLLNNFYPREAKVQWKVDNALQSGNSQESVTEQDSKDSTYSLSSTLTLSKADYEKHKVYACEVTHQGLSSPVTKSFNRGEC | 2.76 | 0.000641 | 233000 | 1.06 | 0.000459 | 431000 | 3400 | 3900 | 0.48 | 0.000132 | 275000 | 7000 | 1.8 | 0.000273 | 151000 | 0.48 | 0.000132 | 275000 | 2.76 | 0.000641 | Kd [5]: 1.8 nM; koff [5]: 0.000273 s⁻¹; kon [5]: 151000 M⁻¹ s⁻¹; fold better binding compared to A1-IgG4 [10]: 1.2 fold; fold higher affinity relative to A1-IgG4 [11]: 1.2 fold; kon [12]: 233000 M⁻¹ s⁻¹; Kd [13]: 1.06 nM; koff [13]: 0.000459 s⁻¹; kon [13]: 431000 M⁻¹ s⁻¹; Mean Fluorescent Intensity [14]: 3500; binding result (mouse 5T4): no binding; fold better binding compared to A1-IgG4 [15]: 1.7 fold; fold higher affinity relative to A1-IgG4 [16]: 1.5 fold
2 | A1-IgG4 (a humanized anti-5T4 IgG4 antibody) (antibody, Same variable domains as A1, human IgG4m heavy chain; also called A1-IgG4 Ab; Humanized A1 human IgG4m) heavy: not shown light: DIQMTQSPSSLSASVGDRVTITCKASQSVSNDVAWYQQKPGKAPKLLIYFATNRYTGVPSRFSGSGYGTDFTLTISSLQPEDFATYYCQQDYSSPWTFGQGTKVEIKRTVAAPSVFIFPPSDEQLKSGTASVVCLLNNFYPREAKVQWKVDNALQSGNSQESVTEQDSKDSTYSLSSTLTLSKADYEKHKVYACEVTHQGLSSPVTKSFNRGEC | – | – | – | – | – | – | 2100 | 2400 | – | – | – | 5500 | 2.11 | 0.000382 | 181000 | 0.52 | 0.000172 | 328000 | 4.7 | 0.00095 | kon [12]: 202000 M⁻¹ s⁻¹; Kd [13]: 1.43 nM; koff [13]: 0.000893 s⁻¹; kon [13]: 626000 M⁻¹ s⁻¹; Mean Fluorescent Intensity [14]: 2500
3 | A3 (a mouse/human chimeric antibody) (antibody, human IgG1, kappa, V domains shown, also called Chimeric A3; muA3-huIgG1) VH: EVQLVESGGGLVQPKGSLKLSCAASGFTFNTYAMNWVRQAPGKGLEWVARIRSKSNNYATYYADSVKDRFTISRDDSQSMLYLQMNNLKTEDTAMYYCVRQWDYDVRAMNYWGQGTLVTVSS VL: DIVMTQSHIFMSTSVGDRVSITCKASQDVDTAVAWYQQKPGQSPKLLIYWASTRLTGVPDRFTGSGSGTDFTLTISNVQSEDLADYFCQQYSSYPYTFGQGTKLEIKR | 0.41 | 0.000187 | 458000 | 0.12 | 4.17e-05 | 351000 | – | – | 0.17 | 3.06e-05 | 179000 | – | – | – | – | – | – | – | – | – | Kd [17]: 0.82 nM; koff [17]: 0.000162 s⁻¹; kon [18]: 198000 M⁻¹ s⁻¹; binding result (mouse 5T4): no binding
